Assay results taken from paper PMC6698733.

T1: Dhr1 isolated C-terminal domain (CTD) (Saccharomyces cerevisiae, UniProt Q04217 1176-1267)
T1 sequence: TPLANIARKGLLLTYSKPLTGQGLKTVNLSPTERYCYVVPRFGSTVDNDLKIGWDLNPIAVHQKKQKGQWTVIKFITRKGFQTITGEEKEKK


Biological target: T1, Dhr1 isolated C-terminal domain (CTD)
Test: not stated

Row | Binder | binding result
1 | UUUUUUUUUUUUUUU (ssRNA) [poly(U)15] | no binding
2 | AAAAAAAAAAAAAAA (ssRNA) [poly(A)15] | no binding
